Reference: the supplement of paper PMC12764529

experiment: folding stability dG unfold (combined trypsin and chymotrypsin); higher = more stable
Experimental: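 Folding stability of de novo designed mini-proteins (<80 aa, no Cys; designed by TrROS, TrMRF, ProteinMPNN and the joint model) was measured by cDNA display proteolysis with trypsin and chymotrypsin. Each protease was used at 11 concentrations in a threefold dilution series plus a no-protease condition. K50 was inferred by Bayesian fitting of sequencing counts, and dG unfold was derived against a sequence-predicted unfolded-state K50 (Tsuboyama et al. method). Sequences shown include variable-length N-terminal GS-type padding (SAGGSAGG...) inside a display construct carrying a PA tag. Rows were kept only if the AF2 dimer inter-PAE was >15, to exclude likely homo-oligomers.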

Sequence | folding stability dG unfold
SAGGSAGGVRVRVVYPDGEPIGEIDIQLPPEMPQDQRQVKELAENIASRFKENGRKVKVEIEPPSAGGSAGG [r6_884_TrROS] | < -1 kcal/mol
SAGGSAGGVSKVLEVRPAPGSGTYTVRTLREDPATGTTTEEVLTIPTSRPEVVDSLPPDATVELSAGGSAGG [r6_979_JUSTAS] | < -1 kcal/mol
SAGGSAKITIEPVKDQYRIEIKIPVFDPNGKKDPIEIPMYMPPDDPERMKDQILDWAREKNPDLIISAGGSA [r15_1050_TrROS] | < -1 kcal/mol
SAGGSAKIVIPGMSPSMIRHAIKEGVKKIHIVWPNPEQAKGFKKELEKEDGIPIKVVPAEEAKKLESAGGSA [r15_243_TrROS] | < -1 kcal/mol
SAGGSAKVTVDEKDLKVTVESNIPVLVTYTLPGGKKKPFAGYLPPEKIEEFAKKEAEKFATELLGKSAGGSA [r15_365_TrMRF] | < -1 kcal/mol
SAGGSAMERRTFNLPADRVSPEVLLEKLKAVGLTPTEIKPVPDGVEVVVEYDPSKVEKLEKALKEGSAGGSA [r15_161_JUSTAS] | < -1 kcal/mol
SAGGSAMFEVRKLSEDPSTGVTTELITLPDGKEVTVTTTTDSSGNPTVTVTFPDGTVLSLEEVELESAGGSA [r15_832_JUSTAS] | < -1 kcal/mol
SAGGSAMIEVETRPLPTPRELVTVKFDSEELLPEVIEKLPGVEEVEVSESKGDGKPYYTATFVIPRSAGGSA [r15_344_JUSTAS] | < -1 kcal/mol
SAGGSAMTLVEEVPVAPGTLVEAESIAVSPEGKIYRSRVEGLEPGRARVTVPVEELPGNLEDPELISAGGSA [r15_909_JUSTAS] | < -1 kcal/mol
SAGGSAMVIEVEEEALSEEEAEEIKEEKLKEAKEKLPGEEPVELDIKVTVTVKEPEEKPYKKNILKSAGGSA [r15_663_JUSTAS] | < -1 kcal/mol
SAGGSANFKIRMPNGRPMDIQPDPEGETWVIRMPGGHIIPIEIKDGKLKDIKILPGMPPNWSIEPVSAGGSA [r15_709_TrROS] | < -1 kcal/mol
SAGGSAPDFKIKDIKIPHRRNPNGMYRVEIKLEVPDGRKIPIEVPYNEDGKPTPEQIENAAKELAKSAGGSA [r15_233_TrROS] | < -1 kcal/mol
SAGGSAPEPYTFKMKNPKGPPVEITITRNPNNGNYMISVEMPGPGKKHEGPMPMEDLNNLPGLEPVSAGGSA [r15_622_TrROS] | < -1 kcal/mol
SAGGSAPPPKMKRIELKVEDPEHGYEVRVEVMIYPNDSISIQYESPNGKPLPKERAQKLLKELGIESAGGSA [r15_872_TrROS] | < -1 kcal/mol
SAGGSAPVIPVKSEEEAKEVAKAASPDKDLLFKYPKGNVKLITIDPKNGPKITVKETLPVSPEKALSAGGSA [r15_577_JUSTAS] | < -1 kcal/mol
SAGGSATIKIPPGMDMEIDDVELNPDDKTVEVEITFGDGPMKARITPNGQKEIEMPNGQPFTIPIDSAGGSA [r15_111_TrROS] | < -1 kcal/mol
SAGGSATTTEKWTIGDPSGPPRTVDLTKLPNSDEYLITVTYPDPNHTETGLLSEEEIKKIPNAVPKSAGGSA [r15_622_JUSTAS] | < -1 kcal/mol
SAGGSEEFEFRDPFNGEEFEVTRDPNNGELDVEYPNGWKMRISITDDRFEIVEMKPVPPPPVDPDQKSAGGS [r16_687_TrROS] | < -1 kcal/mol
SAGGSGNPNAPVPYIPKGYKTVPIPLKGDPNASEEELKKKLEEAKEKIKKEIDPTPDGIPIEINEGSAGGSA [r2_149_JUSTAS] | < -1 kcal/mol
SAGGSGTTSPVLVEETVFTDGSATYTRKKVELEEVERPPVPPVEIPEEAREAGLAGDYEAAEAILASAGGSA [r2_196_JUSTAS] | < -1 kcal/mol
SAGGSKDKKMPPEQAKQVQVRVEIPIRVYRPGDGGEPHDFPIEIWGPMKSPEEADKEVNDAIDEFFSAGGSA [r2_244_TrROS] | < -1 kcal/mol

Sequence | folding stability dG unfold
SAGGSMPLETLETTGEYVPGTGVYVTKLAVGDPKSDVSFSVTETRPTTDPVTGTPSLYSKPVSFSYKKSAGG [r19_129_JUSTAS] | < -1 kcal/mol
SAGGSMTELIPTPPSATTLNVTKTVPDPRTGTTVTTNVTVEVVPEGDGYVATVYYDPSGRPVKRSLSAGGSA [r2_123_JUSTAS] | < -1 kcal/mol
SAGGSNPLLDELKDKPFRLPNIRDPGNGRDFPGVPIKIKEAEPPKDDGKISIKVEHPDGPYEMQIDSAGGSA [r2_314_TrROS] | < -1 kcal/mol
SAGGSPKIQIDQYNPNDYYVRIEYPGNGNTHEIPFRGSKGELAKKLEDEAEEHNMPIDVEIYPPDDSAGGSA [r2_161_TrROS] | < -1 kcal/mol
SAGGSPPLVVEEELLSEKTLPEPGTGTVTLTRRTIRDPTADVEWEERFTVTTPPDGSVEVSSTRERLLSAGG [r13_917_JUSTAS] | < -1 kcal/mol
SAGGSTVTVEVETEEEAEALLQGLPELEEVVVVIPGEGEPVEKPVKIEPPAPGVLGETPLPRPSPRLLSAGG [r13_183_JUSTAS] | < -1 kcal/mol
SAGGSTVVTEVSVSPGNPTLTLDSKTPDGKVVAKRVAAPADATATFEVKQTINGNPVITTVTQAPEASAGGS [r16_672_JUSTAS] | < -1 kcal/mol
SAGGSVDVDEEEAEKLIEEALKKGLEVTITARLPDGGVRVLKYEGPDRKRTVIEELPVPPSPLNPALLSAGG [r13_839_JUSTAS] | < -1 kcal/mol
SAGGSVEISEEELEKLIEEGRVDKKEEYPEGVPSKKYETEKLGKELGKPITINVTTTPDGKAVAKVLKSAGG [r13_163_JUSTAS] | < -1 kcal/mol
SAGGSVLPPDAVVYGTETRPFPNGETVEVERERRFPPRPPAPAGVLVEYPDGTVVPAPSPEEAAALLSAGGS [r16_580_JUSTAS] | < -1 kcal/mol
SAGGTVREIKEILKEKGWPVKNVEPGPNGNYTVQLRRPRGKPFKINIPSDNPEEQQALREAIPPDFVSAGGS [r16_821_TrROS] | < -1 kcal/mol
SAGIKEIAKKLGMPPNNIKIKNIQPQPRRKPDPEDGKPEPEPYPTVSVEIEAPGNGKKREASIPADEIQSAG [r5_517_TrROS] | < -1 kcal/mol
SAGIKPGDPLIIKFNFPPEARDKIKKLLEDPGFTYENDPDKGSVSIVFPAADVDRLQDLPGISEIVPVSAGG [r19_212_TrROS] | < -1 kcal/mol
SAGIVIPFEELKEFMSDEEIEDIAREFAQDNGYPPKKIEIEPHPNPGDWITIKAEPDNGNKAPIVFRLPSAG [r5_745_TrROS] | < -1 kcal/mol
SAGKERTWRIYVPKNMPPGRPFEGELELNPNGERDVRISWPGGKTRKIKSPDDIKELAKSGYPIMIEPVSAG [r5_42_TrROS] | < -1 kcal/mol
SAGMDIYTETVVPLRVETDEEEIEEIIEKAKEEAEKKGYKPVEIPVETEPSPEGKTLVTIPVKLLKKAPSAG [r14_109_JUSTAS] | < -1 kcal/mol
SAGMDKPVATFTRQKTPDGTEVLHVTVTTTAAGTGTTDPSTFTFPAGSDPAVVAAKVRAAGVAAVAFEPSAG [r5_37_JUSTAS] | < -1 kcal/mol
SAGMIVKTVTVSPEVPPEEVAERLKRENPWIKEVKPEKVTSVTVPNPGKTLLTVTITIELDDVPEEVLKSAG [r5_326_JUSTAS] | < -1 kcal/mol
SAGMKITFPDGFKEIEVYEDPNYPYIEIPLPGGSIRYDLKDGPIEIEPPGDNRPIRFPIPPGDTITLPSAGG [r19_138_TrROS] | < -1 kcal/mol
SAGMPESEVIPLPDGSVVEVRRWPDSELRFVFPPGGPATVERHDTRTGTVETTPVSAADPEAAAAAVLASAG [r5_674_JUSTAS] | < -1 kcal/mol
